Test [1] deals with hGITR ECD hFc (human) (UniProt Q9Y5U5). As to the kind of experiment: SPR; Biacore T200; hGITR ECD hFc immobilised on a Series S CM5 chip; antibody 0, 3.125, 6.25, 12.5, 25 and 50 nM; association 180 s, dissociation 600 s. For orientation: Surface plasmon resonance follows binding to a sensor surface in real time, without labels.
Test [2] deals with human GITR on 293F‐hGITR cells (human) (UniProt Q9Y5U5).
The target of test [3] is cynoGITR ECD hFc (cynomolgus). Kind of test: ELISA; indirect ELISA; antigen hFc fusion protein coated on 96-well plates (1 μg·mL^−1 overnight at 4 °C in Fig. 3B), antibody added, detected with anti-rat IgG/hIgG-peroxidase antibody.
The target of test [4] is hGITR ECD hFc (human) (UniProt Q9Y5U5). The test is described as above.
The target in test [5] is human GITR on 293F‐hGITR cells (human) (UniProt Q9Y5U5). Kind of test: flow cytometry on cells; 293F‐hGITR or 293F‐cynoGITR cells incubated with antibodies at 4 °C for 1 h, fluorescent anti-rat/human secondary antibody; EC50 of MFI curve.
The target in test [6] is cynoGITR on 293F‐cynoGITR cells (cynomolgus). The description is as above.
Test [7] concerns the target hGITR ECD hFc (human) (UniProt Q9Y5U5). As to the kind of experiment: SPR.

The record followed here is PMC9340783.

Sequence of hGITR ECD hFc (human) (Q9Y5U5 other isoform, or with tags, fused parts or gaps): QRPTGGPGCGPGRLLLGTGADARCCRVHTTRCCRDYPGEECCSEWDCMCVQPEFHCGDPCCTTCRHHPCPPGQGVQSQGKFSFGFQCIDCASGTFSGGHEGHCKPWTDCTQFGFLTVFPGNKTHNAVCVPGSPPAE
Sequence of human GITR on 293F‐hGITR cells (human) (Q9Y5U5 26-241): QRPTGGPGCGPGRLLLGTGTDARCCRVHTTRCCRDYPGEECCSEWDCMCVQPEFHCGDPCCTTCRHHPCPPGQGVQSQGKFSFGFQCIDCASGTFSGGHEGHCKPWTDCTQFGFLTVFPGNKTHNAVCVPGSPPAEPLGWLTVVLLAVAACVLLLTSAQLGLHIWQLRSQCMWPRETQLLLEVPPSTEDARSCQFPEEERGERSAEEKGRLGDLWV

Consider Tab6C8 (antibody), for which the dissociation constant Kd in the test with hGITR ECD hFc (human) [1] was determined as 3.82 nM. In test [2], the NF‐ĸB luciferase reporter assay, Crosslinking, EC50 stood at 0.336 nM; the NF‐ĸB luciferase reporter assay, Crosslinking, Top ratio turned out to be 32 fold; the NF‐ĸB luciferase reporter assay, No crosslinking, EC50 worked out at 0.829 nM; the NF‐ĸB luciferase reporter assay, No crosslinking, Top ratio worked out at 14 fold. In test [2], the T‐cell activation (IFN‐γ secretion), Donor#1, EC50 is 0.0106 nM; the T‐cell activation (IFN‐γ secretion), Donor#2, EC50 amounted to 5.59 pM; the T‐cell activation (IFN‐γ secretion), Donor#3, EC50 was 6.81 pM. In test [3], the EC50 stood at 1.12 nM. This substance also returned an EC50 with hGITR ECD hFc (human) [4] of 0.954 nM. In addition, the concentration for a half-maximal effect (EC50) in test [5] is 0.027 nM. The substance further returned an EC50 in test [6] of 7 pM.

Tab6C8 gave a koff with hGITR ECD hFc (human) [7] of 0.0044 s⁻¹.

What is called Kd is the constant that tells how readily two partners part at equilibrium. Read a high Kd as a looser complex. One may read the EC50 as the concentration that produces a half-maximal response. Low values mean higher potency in that assay, high ones lower potency in that assay. In general, koff refers to the first-order rate constant of dissociation. Low readings indicate slow dissociation, high ones fast dissociation.
